# Test results reported in patent US20050181476.
# Chain of E-MyD88S (chain, as listed by the source): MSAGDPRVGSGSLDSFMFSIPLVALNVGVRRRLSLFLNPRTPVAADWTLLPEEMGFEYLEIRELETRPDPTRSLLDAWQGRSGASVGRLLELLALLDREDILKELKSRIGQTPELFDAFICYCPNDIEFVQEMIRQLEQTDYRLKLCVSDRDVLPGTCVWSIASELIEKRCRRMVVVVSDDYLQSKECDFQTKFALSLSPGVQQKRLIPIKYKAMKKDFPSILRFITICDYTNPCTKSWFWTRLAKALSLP
protein,measurement,setting,value
IRAK-4 (protein) MNKPITPSTYVRCLNVGLIRKLSDFIDPQEGWKKLAVAIKKPSGDDRYNQFHIRRFEALLQTGKSPTSELLFDWGTTNCTVGDLVDLLIQNEFFAPASLLLPDAVPKTANTLPSKEAITVQQKQMPFCDKDRTLMTPVQNLEQSYMPPDSSSPENKSLEVSDTRFHSFSFYELKNVTNNFDERPISVGGNKMGEGGFGVVYKGYVNNTTVAVKKLAAMVDITTEELKQQFDQEIKVMAKCQHENLVELLGFSSDGDDLCLVYVYMPNGSLLDRLSCLDGTPPLSWHMRCKIAQGAANGINFLHENHHIHRDIKSANILLDEAFTAKISDFGLARASEKFAQTVMTSRIVGTTAYMAPEALRGEITPKSDIYSFGVVLLEIITGLPAVDEHREPQLLLDIKEEIEDEEKTIEDYIDKKMNDADSTSVEAMYSVASQCLHEKKNKRPDIKKVQQLLQEMTAS,IRAK-4-induced IRAK-1KD phosphorylation (slower migrating species in SDS-PAGE; in vitro kinase assay),MyD88,"Addition of MyD88, however, significantly enhanced IRAK-4-induced IRAK-1KD phosphorylation"
same,in vitro phosphorylation of IRAK-1KD induced by IRAK-4 co-expression,E-MyD88S,in vitro phosphorylation of IRAK-1KD induced by IRAK-4 co-expression was completely inhibited when MyD88S was co-expressed
